Data from the supplement of paper PMC10567573.

B1: PDS5B (parent)
chain: ITYPPGVKEISDKISKEEMVRRLK
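Note: lentivirally expressed fusions sorted by FACS into six bins by GFP to DsRed ratio, PSI derived from sequencing read proportions per bin multiplied by bin number.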

Variants of: B1
Assay: protein stability index of a GFP-peptide fusion (GPS, HEK-293T) (PSI 1-6); higher = more stable
Details: c terminus: a fixed tail appended
Variant ITYPPGVKEISQKISKEEMVRRLK [D12Q] has a protein stability index of 3.29.
ITYPPGVKEISTKISKEEMVRRLK [D12T] gave a protein stability index of 3.69.
ITYPPGVKEISKKISKEEMVRRLK [D12K] gave a protein stability index of 3.43.
ITYPPGVKEISFKISKEEMVRRLK [D12F] showed a protein stability index of 2.71.
Work on ITYPPGVKEISLKISKEEMVRRLK [D12L] yielded a protein stability index of 3.18.
Work on ITYPPGVKEISGKISKEEMVRRLK [D12G] yielded a protein stability index of 3.15.
Work on ITLPPGVKEISDKISKEEMVRRLK [Y3L] yielded a protein stability index of 3.81.
For ITIPPGVKEISDKISKEEMVRRLK [Y3I], the protein stability index was 3.97.
With ITWPPGVKEISDKISKEEMVRRLK [Y3W] the protein stability index was 2.8.
In the case of ITSPPGVKEISDKISKEEMVRRLK [Y3S], the protein stability index is reported as 4.43.
ITFPPGVKEISDKISKEEMVRRLK [Y3F] gave a protein stability index of 3.85.
Work on ITRPPGVKEISDKISKEEMVRRLK [Y3R] yielded a protein stability index of 4.96.
In the case of ITCPPGVKEISDKISKEEMVRRLK [Y3C], the protein stability index is reported as 3.52.
In the case of ITKPPGVKEISDKISKEEMVRRLK [Y3K], the protein stability index is reported as 4.64.
ITYPPGVKEISDKIYKEEMVRRLK [S15Y] gave a protein stability index of 3.46.
Variant ITYPPGVKEISDKIHKEEMVRRLK [S15H] has a protein stability index of 4.52.
For ITYPPGVKEISDKIAKEEMVRRLK [S15A], the protein stability index was 4.27.
Variant ITYPPGVKEISDKIFKEEMVRRLK [S15F] has a protein stability index of 2.33.
Variant ITYPPGVKEISDKINKEEMVRRLK [S15N] has a protein stability index of 3.89.
For ITYPPGVKEISDKIMKEEMVRRLK [S15M], the protein stability index was 4.01.
ITYPLGVKEISDKISKEEMVRRLK [P5L] showed a protein stability index of 3.7.
For ITYPSGVKEISDKISKEEMVRRLK [P5S], the protein stability index was 4.45.
Work on ITYPVGVKEISDKISKEEMVRRLK [P5V] yielded a protein stability index of 3.16.
Variant ITYPYGVKEISDKISKEEMVRRLK [P5Y] has a protein stability index of 2.12.
With ITYPNGVKEISDKISKEEMVRRLK [P5N] the protein stability index was 4.01.
In the case of ITYPRGVKEISDKISKEEMVRRLK [P5R], the protein stability index is reported as 3.81.
Variant ITYPKGVKEISDKISKEEMVRRLK [P5K] has a protein stability index of 3.74.
Variant ITYPPGVKEISDKISKEEMVRRYK [L23Y] has a protein stability index of 3.7.
With ITYPPGVKEISDKISKEEMVRRRK [L23R] the protein stability index was 4.59.
Work on ITYPPGVKEISDKISKEEMVRRGK [L23G] yielded a protein stability index of 4.84.
With ITYPPGVKEISDKISKEEMVRRAK [L23A] the protein stability index was 4.61.
With ITYPPGVKEISDKISKEEMVRRIK [L23I] the protein stability index was 4.51.
ITYPPGVKEISDKISKEEMVRRNK [L23N] showed a protein stability index of 4.49.
With ITYPPGVKEISDKISKEEMVRRDK [L23D] the protein stability index was 5.12.
Work on ITYPPGVKEISDKISKEEMVRRVK [L23V] yielded a protein stability index of 4.29.
ITYPPGVKEISDKISKEEMVRRHK [L23H] showed a protein stability index of 4.08.
For ITYPPGVKEISDKISKEEMVRRPK [L23P], the protein stability index was 4.85.
In the case of ITYPPGVKEISDKISKEEMVRRKK [L23K], the protein stability index is reported as 4.85.
ITYPPGVYEISDKISKEEMVRRLK [K8Y] gave a protein stability index of 3.21.
For ITYPPGVWEISDKISKEEMVRRLK [K8W], the protein stability index was 3.09.
Work on ITYPPGVLEISDKISKEEMVRRLK [K8L] yielded a protein stability index of 3.7.
In the case of ITYPPGVAEISDKISKEEMVRRLK [K8A], the protein stability index is reported as 4.5.
For ITYPPGVMEISDKISKEEMVRRLK [K8M], the protein stability index was 3.46.
With ITYPPGVKEISDKISKEEMVRNLK [R22N] the protein stability index was 4.54.
In the case of ITYPPGVKEISDKISKEEMVRGLK [R22G], the protein stability index is reported as 4.72.
ITYPPGVKEISDKISKEEMVRMLK [R22M] gave a protein stability index of 2.89.
In the case of ITYPPGVKEISDKISKEEMVRWLK [R22W], the protein stability index is reported as 2.33.
With ITYPPGVKEISDKISKEEMVRLLK [R22L] the protein stability index was 2.28.
ITYPPGVKEISDKISKEEMVRTLK [R22T] showed a protein stability index of 4.41.
In the case of ITYPPGVKEISDKISKEEMVRALK [R22A], the protein stability index is reported as 3.76.
ITYPPGKKEISDKISKEEMVRRLK [V7K] gave a protein stability index of 4.55.
With ITYPPGQKEISDKISKEEMVRRLK [V7Q] the protein stability index was 4.16.
With ITYPPGAKEISDKISKEEMVRRLK [V7A] the protein stability index was 4.21.
ITYPPGWKEISDKISKEEMVRRLK [V7W] gave a protein stability index of 3.82.
With ITYPPGEKEISDKISKEEMVRRLK [V7E] the protein stability index was 3.09.
In the case of ITYPPGNKEISDKISKEEMVRRLK [V7N], the protein stability index is reported as 4.24.
With ITYPPGYKEISDKISKEEMVRRLK [V7Y] the protein stability index was 3.77.
For ITYPPGHKEISDKISKEEMVRRLK [V7H], the protein stability index was 4.04.
Variant ITYPPGIKEISDKISKEEMVRRLK [V7I] has a protein stability index of 4.43.
IPYPPGVKEISDKISKEEMVRRLK [T2P] showed a protein stability index of 3.47.
With IYYPPGVKEISDKISKEEMVRRLK [T2Y] the protein stability index was 3.37.
Variant IRYPPGVKEISDKISKEEMVRRLK [T2R] has a protein stability index of 3.57.
IEYPPGVKEISDKISKEEMVRRLK [T2E] gave a protein stability index of 3.86.
For ITYPPGVKMISDKISKEEMVRRLK [E9M], the protein stability index was 3.51.
ITYPPGVKQISDKISKEEMVRRLK [E9Q] showed a protein stability index of 3.35.
With ITYPPGVKSISDKISKEEMVRRLK [E9S] the protein stability index was 3.81.
For ITYPPGVKFISDKISKEEMVRRLK [E9F], the protein stability index was 2.97.
With ITYPPGVKGISDKISKEEMVRRLK [E9G] the protein stability index was 4.19.
In the case of ITYPPGVKLISDKISKEEMVRRLK [E9L], the protein stability index is reported as 2.09.
ITYPPGVKAISDKISKEEMVRRLK [E9A] gave a protein stability index of 4.16.
ITYPPGVKEISDKISKEEMDRRLK [V20D] showed a protein stability index of 5.06.
ITYPPGVKEISDKISKEEMGRRLK [V20G] showed a protein stability index of 4.59.
ITYPPGVKEISDKISKEEMCRRLK [V20C] showed a protein stability index of 3.74.
ITYPPGVKEISDKISKEEMFRRLK [V20F] gave a protein stability index of 3.6.
With ITYPPGVKEISDKISKEEMNRRLK [V20N] the protein stability index was 4.4.
With ITYPPGVKEISDKISKEEMKRRLK [V20K] the protein stability index was 4.17.
In the case of ITYPPGVKEISDKISKEEMWRRLK [V20W], the protein stability index is reported as 3.38.
Variant ITYPPGVKEISDKISKEEMHRRLK [V20H] has a protein stability index of 4.19.
Variant ITYPPGVKEISDKISKEEMYRRLK [V20Y] has a protein stability index of 4.2.
For ITYPPGVKEISDKISKEEMMRRLK [V20M], the protein stability index was 3.81.
With ITYPPGVKEISDKISKETMVRRLK [E18T] the protein stability index was 4.12.
ITYPPGVKEISDKISKEYMVRRLK [E18Y] showed a protein stability index of 2.86.
Variant ITYPPGVKEISDKISKEKMVRRLK [E18K] has a protein stability index of 3.17.
Work on ITYPPGVKEISDKISKELMVRRLK [E18L] yielded a protein stability index of 1.84.
Work on ITYPPGVKEISDKISKEFMVRRLK [E18F] yielded a protein stability index of 2.18.
In the case of ITYPPGVKEISDKISKECMVRRLK [E18C], the protein stability index is reported as 3.86.
In the case of ITYPPAVKEISDKISKEEMVRRLK [G6A], the protein stability index is reported as 4.26.
Work on ITYPPFVKEISDKISKEEMVRRLK [G6F] yielded a protein stability index of 3.31.
In the case of ITYPPMVKEISDKISKEEMVRRLK [G6M], the protein stability index is reported as 3.33.
In the case of ITYPPTVKEISDKISKEEMVRRLK [G6T], the protein stability index is reported as 4.31.
For ITYPPQVKEISDKISKEEMVRRLK [G6Q], the protein stability index was 3.73.
ITYPPLVKEISDKISKEEMVRRLK [G6L] showed a protein stability index of 3.65.
ITYPPGVKEISDKISKEEMVRRLM [K24M] gave a protein stability index of 3.11.
ITYPPGVKEISDKISKEEMVRRLR [K24R] gave a protein stability index of 4.2.
